From patent US20220010020A1 (Five Prime, published 2022)

T1: FGFR2-IIIb (fibroblast growth factor receptor 2 IIIb splice form) (human, UniProt P21802 22-377)
T1 construct: also called FGFR2b; KGFR
T1 chain: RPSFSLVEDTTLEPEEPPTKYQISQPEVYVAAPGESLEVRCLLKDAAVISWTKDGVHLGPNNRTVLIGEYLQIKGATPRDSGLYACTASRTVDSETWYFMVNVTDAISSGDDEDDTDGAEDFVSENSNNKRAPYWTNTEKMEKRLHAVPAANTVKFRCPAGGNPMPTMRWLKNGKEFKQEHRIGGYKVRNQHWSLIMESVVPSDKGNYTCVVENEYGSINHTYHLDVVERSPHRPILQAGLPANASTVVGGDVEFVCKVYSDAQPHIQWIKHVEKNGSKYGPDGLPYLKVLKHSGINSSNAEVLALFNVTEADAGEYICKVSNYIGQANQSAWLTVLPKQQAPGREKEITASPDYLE

B1: anti-FGFR2-IIIb antibody (afucosylated, humanized IgG1 monoclonal antibody), control sample incubated without hydrogen peroxide (antibody, V domains shown)
VH: QVQLVQSGAEVKKPGSSVKVSCKASGYIFTTYNVHWVRQAPGQGLEWIGSIYPDNGDTSYNQNFKGRATITADKSTSTAYMELSSLRSEDTAVYYCARGDFAYWGQGTLVTVSS
VL: DIQMTQSPSSLSASVGDRVTITCKASQGVSNDVAWYQQKPGKAPKLLIYSASYRYTGVPSRFSGSGSGTDFTFTISSLQPEDIATYYCQQHSTTPYTFGQGTKLEIKR
notes: also called αFGFR2b; Sample 1
B2: anti-FGFR2-IIIb antibody incubated with 0.1% hydrogen peroxide overnight at room temperature (force oxidized) (antibody, human IgG1, kappa, V domains shown)
VH: B1 VH
VL: B1 VL
notes: Same antibody as m1 after peroxide treatment; also called +0.1% H2O2; 0.1% H2O2
B3: anti-FGFR2-IIIb antibody incubated with 0.01% hydrogen peroxide overnight at room temperature (force oxidized) (antibody, human IgG1, kappa, V domains shown)
VH: B1 VH
VL: B1 VL
notes: Same antibody as m1 after peroxide treatment; also called +0.01% H2O2; 0.01% H2O2
B4: anti-FGFR2-IIIb antibody incubated with 1.0% hydrogen peroxide overnight at room temperature (force oxidized) (antibody, human IgG1, kappa, V domains shown)
VH: B1 VH
VL: B1 VL
notes: Same antibody as m1 after peroxide treatment; also called +1.0% H2O2; 1.0% H2O2

Biological target: T1, FGFR2-IIIb (fibroblast growth factor …)
Test: blocking ELISA (potency), forced oxidation study

Q: Which results are given for B1?
A: % Potency (Assay 1), against Reference: 79%; % Potency (Assay 2), against Reference: 89%

Q: How did the “% Potency (Assay 1), against Reference” value turn out when B2 was run?
A: 78%

Q: What about the “% Potency (Assay 2), against Reference” value of the same binder?
A: 100%

Q: Which results are given for B3?
A: % Potency (Assay 1), against Reference: 98%; % Potency (Assay 2), against Reference: 106%

Q: What does the source list for B4?
A: % Potency (Assay 1), against Reference: 73%; % Potency (Assay 2), against Reference: 93%

Biological target: T1, FGFR2-IIIb (fibroblast growth factor …)
Test: ELISA potency of forced oxidation samples

Q: With B1 as the binder, how does the “Potency By ELISA” value read?
A: 84

Q: With B2 as the binder, how does the “Potency By ELISA” value read?
A: 89

Q: B3 was tested. Which “Potency By ELISA” value did it give?
A: 102

Q: With B4 as the binder, how does the “Potency By ELISA” value read?
A: 83

Biological target: T1, FGFR2-IIIb (fibroblast growth factor …)
Test: blocking ELISA (potency), forced oxidation study; blocked ligand not named

Q: With B1 as the binder, how does the IC50 read?
A: 0.0272 µg/mL

Q: B2 was tested. Which IC50 did it give?
A: 0.0259 µg/mL

Q: With B3 as the binder, how does the IC50 read?
A: 0.0208 µg/mL

Q: How did the IC50 turn out when B4 was run?
A: 0.0257 µg/mL
